The data set can be described thus: label from the status in PepcDB records.

For 21 sequences, protein production results are on record in a protein production outcome set (Wang et al. 2014).
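Also: failed if final PepcDB status was selected cloned or expressed and not failed if soluble or beyond.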

Turning to “MQAAAARIVTIAVCPGPAAAMQDAILQALRRDAADDAVALAREWVTNAPDHAAAHRWLALALQQQGQPALALDSIDTALTLTPEDADLHLLRAGALLATRDLSAADAALSRTTALDPNQFNAYVMQAHLAVARGDLDEAERLSRTAARLAPEHPQLLAVDGVVEMRRGQDDRALSLLTRAAEQLPDDARVLFSLGFAYLQKEHFAFAERAFERVIELNPPGTALRAFIAQLAQRQGRLDDALAAMQGVLDQPDGDLPAMRRLAGEMELQAGRPDQAAAHLRLALAHWPADRRTLHALLTAWERLGAVDDARDTLDAALATSATAHDLWLARLAVEPVGGPQAQAVIERWLLAMPEHLPALEALMRVHDMQGQADEAEMVARQIVAVEPGRISGEQRIVEALLQRDPPAAIACVESLIESLPAPQQTVLRPWLGNVQDRAGQPDAAVGTWMQFHREQAQHRLPLPPQAARQPTQWPALGSIPDTVTARPLFVWGTPGSHVERLVAVMGAATPLVRGDRYGITPPSDALQSYRTLEQLASGELAPTALVEGWKAQLPRRGIDDGNVIDWLLWWDNTLLTALRPHLPEGRLAIALRDPRDMLLDWLSAGASAPLALQSPQQATDWLLIALEQLATLHERDLYPHRIIRLDGIEDDPQGISTALEQAFGLSFPLVEPRGPARLASGRWRDYRGVLGAQFDLLTLIAVRFGYPQD”, the protein production entry is listed as “failed”.
Take “MQAAVTVTPARLPELLLGLATVRPVFLWGAPGIGKSSLVRNFADSLGLECVSLLGTQLAPEDLIGVPQIRDGRSVFCPPESIARDEPYCLFLDELNAATPDVQKAFYSLILDRRIGNYELPKGSLVIGAGNRATDNALARPIASALVNRLTHVHLDASAKDWLVWAGENGIHPWITDHLTDRPDHLWSKPPKTEEPFSTPRSWHMLSDALHSFGQDLDEETLKVLAHGTLTPAHATAFCGYVKIVRSRFGIEAILKGEARWPSRIEDRDLLYYLAESFRGRLVKELPASKEHMSANGRQTAYRAKSLLVQLAEISVEVAQSVIASDADGNPLLPAWFLVEAARDMPRLVEARRLEHHHHHH”: the protein production result is listed as “failed”.
With “MQAEGKRKKGDLLIILVVLIIGVGAAVPWLWNQLNPGGGNGEHERIAVITRDGKEVARINLDKVTEPQHFHYEGGIALTIVAENGKIRFLESQCPDQICVKTGSLSKPGDFAACLPAGTIVTIEGDEYE”, the protein production entry was “failed”.
Take “MQAILLNFCFDFMCNYVIMSNKHFYRLGGFIMSFKIITISREFGSGGRFIGEQIAQKCGIEFYDKKIIEHVAKELGISEQIVANQGEYAPAGNIFSYAFVGRDITGVSLSDQIFNIQQKLIKDIAQKEPCVIVGRCADYILSDRDDVLNVFIEGNKPEKAARIKKLYQKSDDEVKKLLKDVDKKRSVNYRYFTDKEWGNRKNYDLVLNSSVLGYDKCIELITAAYA”: the protein production entry was “failed”.
With “MQASSNGTTHTKRVRIRPFQKGIRRKRKDLMTEAENRCRLVLIVPDIADADEQARIVADALKGGDVASVIVPQYGLDDGAFQKHAEKLVPVIQDAGAAALIAGDSRVAGRAKADGLHITGNAQALSEAIDKHAPKLIVGGGNASDRHNALEIGEVRPDYIFFGKLDGDIKPEAHPKNLALGEWWASMIEIPCIVMAGTDPASALAVAETRAEFVALRLAVFGEPGRAPSIVAEINALLDEKAPRFED”, the protein production entry was “failed”.
Under “MQDEYDAADLSLGVSDVTLVGEVLDTEAVRTFDRDDGSEGRVSNLVVGDETGRVRVTLWDDQADTATDLDAGAVVEIVDGYVREREGSLELHVGDTGAVTPVPDADVSFVPLEHHHHHH” stands “not failed”.
Under “MQDKYGVNHDHYCYESSDVLINLLNIRDPDELTQAEADFNLIRYSEYCSDLDELEDFDSNHFLNLHWVLFQDIYEWAGTIRDVDISKANTRFCTCSRVEPELNKAISRIPLIRFCRNKHELVALVADIFSDLNVVHPFREGNGRTTRFFFEELLHVAGYRIEWPVITKEEWVDANIHGYFGQLHKLEVIFDAAIIESLEHHHHHH” stands “failed”; under “MQEAPNTPTRPQAPPSAHLESPQPARTQQQSIQQMTPQSTTSSNNFLKDGAAGAVLEDQDIEEVLKALKTFDGGHVNPDTICEFFDEVWEEAAPAAPLPPAPPENVVDVPGAKPSCSGILVSGSNISQPNVIIKQEQRPWQESHAELEQQQHVISRRIEFLLRRMRKLQARAMCRHASEEVVGIMEWSARSSHKAPV”, “failed”; under “MQEEWNPLMKNRCIIWLVTGICLTVIFQFPLKSVASSADKYANFAELAEHETEGEDYQIEYTDMGTELLILSPHGGGIEGGVSELVRAFSADYSTYLFEGIKPSQNWDLHITSNHFDEPQALKAVKEHSYVLAFHGYHDIVEHTLVGGTDTGGAKAIVRALLNKGFSAELVSPSHRLAGGNPENINNQCKTGQSIQLEISTPQREAFFSEFGLWTRASSKNETFQAYVSAVKEVLETRYK”, “failed”.
On to “MQEKGNISIHTENIFPIIKKFLYSDHEIFLRELVSNAVDATQKLKRLAALGEYPGELGDTKVTVSVNKEAGTITITDRGIGMTAEEIKKYINQIAFSGATEFIEKYKDKTDTNQIIGHFGLGFYSAFMVSSNVEINTLSYQPNSKAAHWICDGSTEFEIKLSDKAERGSEITLHIAEDSLEFLETSRIHSILDKYCRFLPVEIEFEGEIINNPSPLWTKQPSELKDEDYIAFYKELYPMSEDPLFWIHLNVDYPFSLTGVLYFPKLKKDFEFQRNKIQLYSRQVFITDEVKDIVPEFLMLLHGVIDSPDIPLNVSRSFLQADGNVKKINSHITKKVADKLNELFNNDRAGFEAKWDDIGMFVKYGMISEEKFYDKAKNFCLLKNTDNALSTIEEYEQKIKPIQTDKNDKLVYLYSNNAVAQDIFIQAAKKKQYDVLLLDSVIDSHFLGQLESKLEKVQFKRIDSESVDKLIEKDEPKLSLLTKEQETQAEELFKKVVNNGKVIIKLEHLATDDMPVTIVISEFMRRMKDMAATSGQSMFGGFELTHEVVVNTNHPLIAKAIAAPEAEGEQLIKQTYQLGLLSQGLLQGAELSAFIERNMNALVK”, for which the protein production result is listed as “failed”.
With “MQEKYNFGKVSSQHKNYSKIETMLRPKGFDKLDHYFRTELDIDLTDETIELLLNSVKAAFGKLFYGAEQRARWNGRDFIALADLNITKALEEHIKNFQKIEQDMGVDELLEYIAFIPPVEMNVGEDLKSEYRNIMGGLLLMHADVIKKATGERKPSREAMEFVAQIVDKVF” the entry was “not failed”.
With “MQELLFIRLNELILLIYLFSIACYFFDFIKRFYKIRNIGFVTLGIVWVLQTISLSFYVTATNQVPLGNVFDVLFALAWLIISISIVISVIKQVNISIFLFNIIGFVFIAISTFQPMHYQGAGEKLNVINELLIVHVTFAIISYAIFAFAFVNSILYLIQFKNLKQKRFTQKYFRISSVATLEKVVFYNSLVGFLFIILSIILGAQWGINTIGMDIFVDPKVIMSVIITILYGLYLLLRVRQSISKHKLIYINIILFCLNMINLLFTSHVSDFHQWTGI”, the protein production entry is on record as “failed”.
Under “MQENHLIDIARWSERPGPRGIPSICSAHPLVIEAAMLRAHREKAPVLIEATCNQVNQDGGYTGMTPEDFTRFVGAIADRIEFPREKILLGGDHLGPNPWKHLPADEAMAKAEAMITAYAKAGFTKLHLDTSMGCAGEPTALPDATTAARAARLAAVAEDAVGGRGGVLPVYIIGTEVPIPGGALEELDTLEVTAPEAAIETVRVHRAAFEEAGAAGAFSRVVGAVVQPGVEFGNENVIAYDRARAEKLSATLGQLHGMVFEAHSTDYQTPDALRELVADGFAILKVGPGLTFALREALYGLDQIAAFLFPAARERTLAEVTEAVMREEPANWAKYYHGSAEEQRLQRHFSYSDRIRYYWPHPKAAAAVDELMSLLDGVAIPETLISQFLAGSYARVRNGEVAPQAKPLALAAVDAVLQDYFAACRV” stands “not failed”; under “MQEYIEFFKAHTLLSLAWVGLFVMLVVSVIKSSFSKIKNVTHQELTIMVNRQDAKVVDVRSNDDFRKGHIVGAVNVTLADIKNNQVSALEKFKGSPIILVCNAGMTSSQAAQLLSKQGFENLYNLKGGMGEWQAANMPVSKSKR”, “failed”; under “MQFFDGYHYHGTTFEQSYRCYPASFIDKPQLESGDKIIMPPSALDRLASLHIDYPMLFELRNAGIERVTHCGVLEFIAEEGMIYMPYWMMQNLLLQEGDIVRVRNVTLPKGTYVKLQPHTTDFLDISNPKAILETALRNYSCLTSGDSIMVPYNNKKYFIDIVETKPANAISIIETDCEVDFAPPLDYKEPERPTAPSAAKGPAKAEEVVDEPEPKFNPFTGSGRRLDGRPLAYEPAPASSSKGKQPVVANGNGQSSVASSSEKATRAQGKLVFGANGNRAPKEAAPKVGAAKETKKEEQEKKDEPKFQAFSGKKYSLRG”, “not failed”.
With “MQFIEKIGIVLATYNPNLEYFEKQIQSIKQQSWKNWVCHIVDDCSHSEYQVGIKNIIDNDPRFICHFHSHNLNHYYNFERGLKYCAQDKSITAISLADQDDIWHDDKLKILLKKLRSQKAVLIHSDLELINSYDQTIHPSAWDFEGRKPHKLSHDLLLLRNVVTGCSVLFCTSLLTDVLPFPPQNKISWYHDWWIALVASHRGKIVHIHKPLVWYRIHNANNVGVLKDSGKIHCELLLLCRKKFKINGNSYLVHRDFSKAFYRRFKRELNELGYTNPFDDRKLDFGWHILKLLYKSLLVGYNSEGAALRIGVLKLIFDIQRSYRIILYHCLKTFKSYYKNSQ” the entry was “failed”; with “MQFIWAALGLVCVALALIGVALPLLPTVPFLLLAAFFFARSSERLHTWLVTHRLFGPMILDWQQSGAIRPGAKKAATLSIAAVFGLSLVFAVPSHVLLIQAVVLSGVLIFIWTRPNG”, “failed”; with “MQFKAEARRNKLMGLWVAEVLGKSGDEANAYAAEVVKADFEEAGHEDVMRKVLGDLDGKRPEAEVRAKYEGLMAVAKAQLMDEL”, “not failed”.
Under “MQFKIIKAQELEKQQREKIAELCFAAFEEDPWSQYAFMQNAFHIIGLLGEDIVSHALWTDRVFTLNNHVTLKTAYIEYVTTDSTMRGRGLASKLLMYLINILTTKKYELAALQPEVEAFYRKLGWVSWGGNLYIKHNISIYKTDGIEVMLYPLSGGLKDQIVCSLKNDKICTDWREGELW” stands “failed”; under “MQFTDFSLDQRLLQSLKHMGIATPTAIQEQALPIALAGKDLMASSKTGSGKTLAFLLPALQRVISTRALSKRDPRVLILLPTRELAHQVYSQLRLLVANTQYKAISVLGGENFNDQAKALAKEPHFIVATPGRIADHLEQKNLFLNGLELLILDEADRMLDLGFAPQLKAINEAADHKRRQTLMFSATLDHSEINEIAAALLKNPLHVAIGTAHAEHQDISQRIYLCDHLDHKEALLSRLLSDESHKQVIIFTATRADTERLAAKLSAQGFATAALSGELKQAARNQIMDQFARGQQQILVTTDVASRGLDLLNVSLVINFDMPKFAEEYVHRIGRTGRAGAKGDAISLVGPKDWDSFKKVQLFLRKTFEISVIKGLEAKFTGLKDKPKSVATKGVVKANTKGKSKPKPNVVKAAPSRDKRFITGVDVGDAPMRKKPKAQLLQESDDEI”, “failed”.
Regarding “MQHESPIIRRKSTRIYVGDVPIGDGAPIAVQSMTNTRTTDVEATVAQIRALEKVGADIVRVSVPTMEAAEAFKLIKQQVSVPLVADIHFDYRIALKVAEYGVDCLRINPGNIGNEERIRSVVDCARDKNIPIRIGVNGGSLEKDLQMKYGEPTPEALVESAMRHVDHLDRLNFDQFKVSVKASDVFLAVDSYRLLAKKIDQPLHLGITEAGGARAGAVKSAVGLGMLLSEGIGDTLRISLAADPVEEIKVGFDILKSLRIRSRGINFIACPSCSRQEFDVIGTVNALEQRLEDIITPMDVSIIGCVVNGPGEAEVSHLGLAGSNKKSAFYEDGKRQKERFDNNDLVNQLEAKIRAKASMMDSENRIEIKVQD”, the protein production entry is given as “failed”.
